In article doi:10.1101/2025.11.17.688653 one finds stoichiometry N data, which are given here for one substance.

The target in this assay is mouse PIEZO1-R2482H (mouse) (UniProt E2JF22). Put plainly: cryo-EM structure.

As usually defined, the stoichiometry N is the number of molecules, sites or subunits per partner or assembly. mouse PIEZO1-R2482H, E2JF22 1-2547 gave a stoichiometry N of 3.
